Results published in article PMC3718342.

Target: T1, 6His-Scy (recombinant, from E. coli)
T1 chain: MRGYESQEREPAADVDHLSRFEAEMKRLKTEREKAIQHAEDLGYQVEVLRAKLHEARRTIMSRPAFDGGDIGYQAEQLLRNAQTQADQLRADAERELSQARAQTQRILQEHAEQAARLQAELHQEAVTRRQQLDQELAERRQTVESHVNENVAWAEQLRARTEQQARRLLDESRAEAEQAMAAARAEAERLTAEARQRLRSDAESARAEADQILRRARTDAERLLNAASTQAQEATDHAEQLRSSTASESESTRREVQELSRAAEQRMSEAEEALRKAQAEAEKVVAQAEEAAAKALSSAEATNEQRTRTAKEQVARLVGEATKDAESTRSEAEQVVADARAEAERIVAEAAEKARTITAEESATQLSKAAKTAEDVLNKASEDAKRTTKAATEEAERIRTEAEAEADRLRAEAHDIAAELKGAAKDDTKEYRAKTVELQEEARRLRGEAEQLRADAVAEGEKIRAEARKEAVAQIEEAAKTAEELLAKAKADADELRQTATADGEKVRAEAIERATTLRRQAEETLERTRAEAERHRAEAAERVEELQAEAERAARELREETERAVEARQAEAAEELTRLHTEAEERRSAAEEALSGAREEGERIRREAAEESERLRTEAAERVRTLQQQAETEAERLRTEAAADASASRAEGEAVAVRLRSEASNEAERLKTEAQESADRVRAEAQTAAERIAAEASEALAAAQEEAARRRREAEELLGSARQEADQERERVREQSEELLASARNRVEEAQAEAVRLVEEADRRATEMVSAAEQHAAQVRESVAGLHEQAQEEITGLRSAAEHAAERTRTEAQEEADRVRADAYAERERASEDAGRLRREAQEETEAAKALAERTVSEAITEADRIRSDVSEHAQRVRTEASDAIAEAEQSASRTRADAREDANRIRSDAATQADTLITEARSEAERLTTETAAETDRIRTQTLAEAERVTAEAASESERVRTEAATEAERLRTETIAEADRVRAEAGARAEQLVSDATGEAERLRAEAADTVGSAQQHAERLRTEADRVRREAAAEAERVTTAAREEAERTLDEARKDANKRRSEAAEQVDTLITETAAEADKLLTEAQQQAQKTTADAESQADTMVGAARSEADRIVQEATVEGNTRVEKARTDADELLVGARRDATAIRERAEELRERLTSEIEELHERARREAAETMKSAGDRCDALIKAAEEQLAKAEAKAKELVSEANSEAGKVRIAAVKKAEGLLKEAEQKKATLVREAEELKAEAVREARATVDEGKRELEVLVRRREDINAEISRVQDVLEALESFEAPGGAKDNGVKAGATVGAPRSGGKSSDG
Test: SPR
Conditions: chain shown with the change, ParA or ParAScy- (500 RU) immobilized on CM5 in the presence of ATP, read off a plot

B1: ParA (purified recombinant wild type) S249Y; E250V (protein)
chain: MDDTPIGRAAQLAVEALGRAGEGLPRPEQTRVMVVANQKGGVGKTTTTVNLAASLALHGARVLVVDLDPQGNASTALGIDHHADVPSIYDVLVESRPLSEVVQPVPDVEGLFCAPATIDLAGAEIELVSLVARESRLQRAITAYEQPLDYILIDCPPSLGLLTVNALVAGQEVLIPIQCEYYALEGLGQLLRNVDLVRGHLNPTLHVSTILLTMYDGRTRLASQVADEVRSHFGEEVLRTSIPRSVRIYVAPSYGQTVLTYDPGSSGALSYLEAAREIALKGVGVTYDATHAHLGAQNDPSMVEGTQ
Work on B1 yielded a response (600 nM 6His-Scy, parent: est. 13) of 4.5 RU, a response (1000 nM 6His-Scy, parent: est. 27) of 12 RU and a response (2000 nM 6His-Scy, parent: est. 43) of 17 RU. The response (4000 nM 6His-Scy, parent: est. 53) was 25 RU.
